How the values were obtained:
Type in all cases: in vivo, human
[1] = Phase 1 dose-escalation study: toxicity and safety
Experimental: (§1) This is a Phase 1, multicenter, open-label, non-randomized, dose-escalation oncology study in which EC1169 was dosed three times weekly (TIW), on Weeks 1 and 2 of a 3-week schedule or once weekly dosing (QW) on Weeks 1 and 2 of a 3-week schedule to assess toxicity, safety and preliminary efficacy results in patients with metastatic, castration-resistant prostate cancer (mCRPC) who have progressed on abiraterone and/or enzalutamide, and have been previously treated with a taxane except in cases of contraindication (e.g. poor performance status, age or personal choice). Patients were also dosed with 99mTc-EC0652 and underwent a SPECT/CT scan (or SPECT scan if no SPECT/CT is available) to evaluate EC0652 as an imaging agent to identify PSMA expression.
Prior dose escalation methodology for both schedules was based the continuous reassessment method (CRM), in which 1 patient is assigned to 1 dose level. Subsequent patients were to be enrolled upon the first observation of DLT, at which time enrollment to that dose level would be expanded to a maximum of 6 patients. An alternative dose escalation methodology for both schedules was based upon the standard “3+3” approach, in which a minimum of 3 patients is enrolled to a given dose level. Following the first observation of a DLT, the dose level is then expanded to a maximum of 6 patients.
Patients received an injection of 0.1 mg of PSMA Imaging Agent IIa labeled with 20-25 mCi of technetium-^99m (PSMA Imaging Agent Ma). Patients were subjected to SPECT/CT imaging of the region(s) known to contain target lesion(s) approximately 3-4 hours after injection of PSMA Imaging Agent Ma (^99mTc-EC0652). For sites where SPECT/CT imaging is not available, SPECT imaging alone was carried out.
(§2) II. PSMA-Tubulysin Compound I Administration: PSMA ligand-tubulysin compound I was administered at least 4 days after PSMA Imaging Agent Ma was administered, as an intravenous bolus injection, TIW on Weeks 1 and 2 (i.e., on Days 1, 3, 5, 8, 10, 12 of a 3-week cycle) or once weekly on Weeks 1 and 2 of a 3-week schedule.
DLTs will be based on events occurring in Part A during the first cycle of therapy and the adverse events must be drug related (i.e. definitely, probably or possibly): • ≧Grade 4 hematological toxicity. • Grade 3 neutropenia with fever>38.5° C. and/or infection requiring antibiotic or antifungal treatment. • Grade 3 neutropenia persisting for >5 days. • Grade 3 thrombocytopenia with clinically significant hemorrhage requiring platelet transfusion. • ≧Grade 3 non-hematological toxicity. Grade 3 laboratory abnormalities (e.g., K or Mg) that persist for less than 48 hours are not considered DLTs. • Grade 3 nausea, vomiting lasting more than 72 hours. • A delay of >2 weeks in the scheduled administration of Compound I due to drug-related toxicity.
• Schedule #1: TIW Dosing Schedule: Inability to administer at least 4 of the 6 scheduled doses of PSMA ligand-tubulysin compound I in a cycle due to drug-related toxicity. • Schedule #2: Once Weekly Dosing Schedule: Inability to administer both scheduled doses of PSMA ligand-tubulysin compound I in a cycle due to drug-related toxicity.
PSMA imaging conjugate IIIa and PSMA ligand-tubulysin compound I was administered via IV bolus injection.

[2] = test system: metastatic, castration-resistant prostate cancer (mCRPC); assay: Phase 1 dose-escalation study: preliminary efficacy; settings: 21 mCRPC patients
From the text: In one aspect, a clinical benefit of the patient to treatment with PSMA ligand-tubulysin compound I can be characterized utilizing Response Evaluation Criteria in Solid Tumors (RECIST) criteria. Illustratively, the criteria have been adapted from the original WHO Handbook (3), taking into account the measurement of the longest diameter for all target lesions: complete response, (CR)—the disappearance of all target lesions; partial response (PR)—at least a 30% decrease in the sum of the longest diameter of target lesions, taking as reference the baseline sum longest diameter; stable disease (SD)—neither sufficient shrinkage to qualify for partial response nor sufficient increase to qualify for progressive disease, taking as reference the smallest sum longest diameter since the treatment started; progressive disease (PD)—at least a 20% increase in the sum of the longest diameter of target lesions, taking as reference the smallest sum longest diameter recorded since the treatment started or the appearance of one or more new lesions. In another aspect overall disease response rate (ORR) is a clinical benefit and is calculated as the percent of patients who achieve a best response of CR or PR. Overall disease control rate (DCR) can be another clinical benefit and is calculated as the percent of patients who achieve a best response of CR, PR, or SD. […]

[3] = Phase 1 dose-escalation study: pharmacokinetics; settings: mCRPC patients, IV bolus
Experimental: as §1, §2

[4] = 21 mCRPC patients, both schedules

CCCC(=O)OCN(C(=O)[C@@H](NC(=O)[C@H]1CCCCN1C)C(C)CC)[C@H](C[C@@H](OC(C)=O)c1nc(C(=O)N[C@@H](Cc2ccc(O)cc2)C[C@H](C)C(=O)NNC(=O)OCCSSC[C@H](NC(=O)[C@H](CC(=O)O)NC(=O)[C@H](CC(=O)O)NC(=O)Cc2ccc(CNC(=O)NCCCC[C@H](NC(=O)N[C@@H](CCC(=O)O)C(=O)O)C(=O)O)cc2)C(=O)O)cs1)C(C)C (some centres unmarked) [EC1169]
DR Grade 3-4 toxicity or serious adverse events [1, 4]: no | on-study deaths [1, 4]: no | occurrences of dose limiting toxicity ([1]; 21 mCRPC patients, both schedules, cycle 1): no | patients with drug-related (DR) adverse events (AE's) ([1]; 21 patients evaluated for cycle 1 toxicity, both schedules, IV bolus): 9 of 21 | drug-related adverse events occurring in >1 patient ([1]; Schedule #1 (TIW, Weeks 1 and 2 of 3-week cycle), 5 pts): No DRAE occurred in >1 Schedule #1 patient | drug-related adverse events reported in ≧2 patients ([1]; Schedule #2 (once weekly, Weeks 1 and 2 of 3-week cycle), 16 pts): Vomiting and fatigue were the only DRAE's | tolerability ([1]; mCRPC patients): well tolerated | patients with a 50% decrease in PSA [2]: No patient | patients with stable disease lasting more than 4 cycles [2]: 3 patients | AUC [3]: Dose proportionate increases | Cmax [3]: Dose proportionate increases

— US20180036364A1, “METHODS OF TREATING CANCER WITH A PSMA LIGAND-TUBULYSIN COMPOUND” (priority 2015, published 2018)
